Test results taken from patent US20210355220A1.

Columns and labels:
Experiment in all cases: flow cytometry on transfected HEK293 cells, background control
[1] = target: hPDL2 on HEK293 cells (human) (UniProt Q9BQ51)
[2] = target: hPD1 on HEK293 cells (human) (UniProt Q15116)
[3] = target: hBTLA on HEK293 cells (human) (UniProt Q7Z6A9)
[4] = target: human CTLA-4 expressed on cells (human) (UniProt P16410)
[5] = target: hPDL1 on HEK293 cells (human) (UniProt Q9NZQ7)
[6] = target: hICOS on HEK293 cells (human) (UniProt Q9Y6W8)
Chain of hICOS on HEK293 cells (human) (Q9Y6W8 21-199): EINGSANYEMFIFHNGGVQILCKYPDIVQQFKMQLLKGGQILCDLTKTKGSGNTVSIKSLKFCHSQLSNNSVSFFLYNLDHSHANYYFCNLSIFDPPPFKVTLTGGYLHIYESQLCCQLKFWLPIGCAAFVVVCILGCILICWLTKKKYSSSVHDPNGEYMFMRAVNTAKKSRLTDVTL

[7] = target: hCD28 on HEK293 cells (human) (UniProt P10747)

Chain of hPDL2 on HEK293 cells (human) (Q9BQ51 20-273): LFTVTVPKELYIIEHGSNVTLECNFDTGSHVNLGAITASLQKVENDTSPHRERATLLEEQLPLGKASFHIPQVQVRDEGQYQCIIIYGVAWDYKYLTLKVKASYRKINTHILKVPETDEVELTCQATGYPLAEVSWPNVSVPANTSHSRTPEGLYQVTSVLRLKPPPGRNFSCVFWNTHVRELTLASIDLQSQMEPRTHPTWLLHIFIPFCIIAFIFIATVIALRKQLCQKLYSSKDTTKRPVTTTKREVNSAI
Chain of hPD1 on HEK293 cells (human) (Q15116 25-288): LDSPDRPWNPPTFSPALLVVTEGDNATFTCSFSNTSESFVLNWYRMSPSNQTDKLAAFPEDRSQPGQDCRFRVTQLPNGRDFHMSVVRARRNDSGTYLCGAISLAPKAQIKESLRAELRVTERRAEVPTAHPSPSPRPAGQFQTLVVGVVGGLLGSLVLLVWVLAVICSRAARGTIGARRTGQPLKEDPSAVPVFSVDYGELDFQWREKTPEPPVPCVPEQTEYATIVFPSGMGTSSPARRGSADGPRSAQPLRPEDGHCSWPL
Chain of hPDL1 on HEK293 cells (human) (Q9NZQ7 19-290): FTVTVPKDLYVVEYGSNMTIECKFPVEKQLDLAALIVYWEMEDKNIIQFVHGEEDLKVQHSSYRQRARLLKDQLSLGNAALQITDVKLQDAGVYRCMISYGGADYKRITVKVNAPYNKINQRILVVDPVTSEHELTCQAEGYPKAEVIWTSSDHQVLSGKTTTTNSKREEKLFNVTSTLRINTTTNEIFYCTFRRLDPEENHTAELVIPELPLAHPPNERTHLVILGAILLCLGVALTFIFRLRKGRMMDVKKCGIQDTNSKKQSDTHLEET
Chain of human CTLA-4 expressed on cells (human) (P16410 36-223): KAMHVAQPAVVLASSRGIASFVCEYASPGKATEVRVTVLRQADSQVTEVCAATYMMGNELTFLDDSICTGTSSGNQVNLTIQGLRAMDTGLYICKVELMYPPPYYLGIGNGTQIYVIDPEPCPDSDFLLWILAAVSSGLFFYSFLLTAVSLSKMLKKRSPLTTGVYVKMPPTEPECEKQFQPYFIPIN

“Secondary Antibody only (anti-human labeled secondary antibody)” was tested, and the MFI [1] was 71 MFI, the MFI [2] was 74 MFI and the MFI [3] was 82 MFI. It also gave an MFI [4] of 78 MFI, an MFI [5] of 68 MFI and an MFI [6] of 67 MFI. For the same substance, the MFI [7] was 69 MFI.
